Patent US4748122A, “2,5-diketo-D-gluconic acid reductase” (Shionogi & Co., Ltd., priority 1983, dated 1988)

Substrate: O=C(O)C(=O)[C@@H](O)[C@H](O)C(=O)CO
Assay: Spectrophotometric enzymatic activity (decrease in absorption at 340 nm), purified enzyme solution of Example 1
Format: biochemical, Corynebacterium sp. No. 20A-77 mutant (FERM-BP 108)
Details: other: varying concentrations of Ca-25DKG, 0.1M TB pH 7, 30° C.

B1: 25DKG-Rase (Corynebacterium sp. SHS752001) (protein)
chain: PNIPTISLNDGRPFAEPGLGTYNLRGDEGVAAMVAAIDSGYRLLDTAVNYENESEVGRAVRASSVDRDELIVASKIPGRQHGRAEAVDSIRGSLDRLGLDVIDLQLIHWPNPSVGRWLDTWRGMIDAREAGLVRSIGVSNFTEPMLKTLIDETGVTPAVNQVELHPYFPQAALRAFHDEHGIRTESWSPLARRSELLTEQLLQELAVVYGVTPTQVVLRWHVQLGSTPIPKSADPDRQRENADVFGFALTADQVDAISGLERGRLWDGDPDTHEEM
notes: The enzyme is an intracellular enzyme extracted from the cells of the 2KLG producing strain; made in house; host or cells: natural producer Corynebacterium sp; No. 20A-77 mutant FERM-BP 108, enzyme purified from sonicated cells; not recombinant
  Km: 1.8 ± 1.0 mM
